Measurements taken from patent US20220315648A1 (AC IMMUNE, published 2022).
Changes are numbered by the printed parent chain. No end group written: not given here. *: point of attachment. Biotin = O=C1N[C@H]2[C@H](CS[C@H]2CCCCC(=O)*)N1

B1: ACI-7069-642A10-Ab1 (antibody, IgG1, V domains shown)
VH: QVQLQQPGAELVKPGASVKLSCKASGYTFTKYWMHWVKQRPGQGLEWIGEINPSNGRTNYNEKFKSKATLTVDKSSSTAYMQLSSLTSEDSAVYYCARYMDYWGQGTSVTVSS
VL: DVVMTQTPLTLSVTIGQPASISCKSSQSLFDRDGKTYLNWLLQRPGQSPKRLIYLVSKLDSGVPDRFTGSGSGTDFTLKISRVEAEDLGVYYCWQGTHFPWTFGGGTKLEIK
notes: also called 642A10B11
B2: ACI-7069-636E5-Ab1 (antibody, IgG2b, V domains shown)
VH: EVHLVESGGDLVMPGGSLKLSCAASGFTFSNYGMSWVRQTPDKRLEWVATISSGGKYINYLDSLKGRFTISRDNAKNTLYLQMSSLKSEDTAMYYCAKDYGSGWAWFAYWGQGTLVTVSA
VL: QLVLTQSSSASFSLGASAKLTCTLSSQHSTYTIEWYQQQPLKPPKYVMELKKDGSHSTGDGIPDRFSGSSSGADRYLSISNIQPEDEAIYICGVGDTIKEQFVYVFGGGTKVTVL
notes: also called 636E5B8
B3: ACI-7069-634H10-Ab2 (antibody, IgG2b, V domains shown)
VH: EVQLQQSGAELVKPGASVRLSCTASGFNIKDTYMHWVKQRPEQGLEWIGRIDPANSNTKFDPKFQGKATITSDTSSNTAYLQLSSLTSEDTAVYYCARFYGGSHWYFDVWGAGTTVTVSS
VL: DIKMTQSPSSMYASLGERVTITCKASQDIKSYLSWYQHKPWKSPKALIYYATSLADGVPSRFSGSGSGQDYSLTISSLESDDTATYYCLQQGESPYTFGGGTKLEIK
notes: also called 634H10H7
B4: ACI-7069-642D12-Ab1 (antibody, IgG2b, V domains shown)
VH: EVQLQQSGAELVKPGASVRLSCTASGFNIKDPYMHWVRQRPKQGLEWIGRIDPADGNTKYDPKFQGKATLTADTSSNVAYLHLSSLTSEDTAVYYCARFYGSSHWYFDVWGAGTTVTVSS
VL: B3 VL with S31R, H38Q, A46I, S65T, T83V
notes: also called 642D12B4
B5: ACI-7071-712A6-Ab1 (antibody, IgG2c, V domains shown)
VH: QVQLQQSGAELVKPGTSVKLSCKASAYTFTEYTIHWIKQKSGQGLEWIGWFHPENDNIKYNENFKDKATLTADRSSSTVYMELSRLTSEDSAVYFCAGTSGYGDYWGQGTTLTVSS
VL: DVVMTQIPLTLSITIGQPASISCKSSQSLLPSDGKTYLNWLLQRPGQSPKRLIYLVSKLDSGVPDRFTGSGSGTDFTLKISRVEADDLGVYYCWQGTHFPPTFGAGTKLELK
notes: Mouse hybridoma antibody, IgG2c; also called 712A6B10
B6: ACI-7071-809F12-Ab1 (antibody, IgG2b, V domains shown)
VH: QVQLKESGPGLVAPSQSLSITCTVSGFSLNRNGVQWVRQPPGKGLEWLGVIWPGGSTNCNSALMSRLSISKDNSKSQVFLKMNSLHTDDTGIYYCARVGGNYVWDYNNYAWGQGTLVTVSA
VL: DVLMTQTPLSLPVSLGDQASISCRSSQNIVHSIGNTYLEWYLQKPGQSPKLLIYKVSNRFSGVPDRFSGSGSGTDFTLKISRVEAEDLGVYYCFQGSHVPYTFGGGTKLEIR
notes: also called 809F12D8
B7: ACI-7069-641H1-Ab2 (antibody, IgG2b, V domains shown)
VH: QVQLKESGPGLVAPSQSLSITCTVSGFSLTNYGVHWVRQPPGKGLEWLGLMWAGGSTNYNSALMSRLSISKDNSKSQVFLKMNSLQTDDTAMYYCVIYRTGFAYWGQGTLVTVSA
VL: B6 VL with N28S, S32T, Y101F, G105S, R112K
notes: also called 641H1E7
B8: ACI-7069-646B7-Ab1 (antibody, IgG2b, V domains shown)
VH: B7 VH with Y32F, L50I, R99K
VL: B6 VL with N28S, S32A, Y101F, G105S, R112K
notes: also called 646B7F7
B9: ACI-7069-633B12-Ab1 (antibody, IgG2b, V domains shown)
VH: EVQLQQSGPELVKPGASVKISCKTSGFTFTEYSMHWVKQSHGKSLEWIGGINPNNGGTSYNQKFKGKATLTVDKSSSTAYMELRSLTSEDSAVYYCARESWGQGTTLTVSS
VL: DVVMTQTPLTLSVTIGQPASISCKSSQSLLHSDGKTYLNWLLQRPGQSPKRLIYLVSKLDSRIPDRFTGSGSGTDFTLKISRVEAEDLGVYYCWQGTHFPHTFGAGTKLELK
notes: also called 633B12C8
B10: ACI-7069-631B2-Ab1 (antibody, IgG1, V domains shown)
VH: B9 VH with F27Y, M34I, K43E, N54D, S59R, E82D
VL: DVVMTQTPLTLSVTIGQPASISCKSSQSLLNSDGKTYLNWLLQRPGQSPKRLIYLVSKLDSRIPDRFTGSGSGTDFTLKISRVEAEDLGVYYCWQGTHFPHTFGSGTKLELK
notes: also called 631B2A2
B11: ACI-7071-809D9-Ab2 (antibody, IgG2b, V domains shown)
VH: QVQLQQSGAELVRPGVSVKISCKGSGYKFTDYSMHWVKQSHTKSLEWIGVISTYYGDTTYNQKFKGKATITVDKSSSTAYMELARLTSEDSAIYYCATYGNFPASFSYWGQGTLVTVSA
VL: DIVMTQAAPSIPVTPGESVSISCRSSKSLLHSNGNTYLYWFLQRPGQSPQLLIYRMSNLASGVPDRFSGSGSGTAFTLRISRVEAEDVGVYYCMQHLEYPFTFGSGTKLEIK
notes: also called 809D9C2

How the values were obtained:
[1] = target: T1, TP-48 (human); experiment: indirect ELISA on TDP-43 peptides, antibody at 1 µg/ml
T1 construct: 23 residues
T1 peptide: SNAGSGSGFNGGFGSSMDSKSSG

[2] = target: T2, human full length TDP-43 (FL TDP-43), recombinant, soluble (human, UniProt Q13148 1-414); experiment: Luminex, beads conjugated to FL TDP-43, antibody serial dilution
T2 construct: Antigen of Luminex, ELISA and SPR (soluble form); also called TDP-43 protein; Soluble TDP-43
T2 sequence (Q13148 whole entry): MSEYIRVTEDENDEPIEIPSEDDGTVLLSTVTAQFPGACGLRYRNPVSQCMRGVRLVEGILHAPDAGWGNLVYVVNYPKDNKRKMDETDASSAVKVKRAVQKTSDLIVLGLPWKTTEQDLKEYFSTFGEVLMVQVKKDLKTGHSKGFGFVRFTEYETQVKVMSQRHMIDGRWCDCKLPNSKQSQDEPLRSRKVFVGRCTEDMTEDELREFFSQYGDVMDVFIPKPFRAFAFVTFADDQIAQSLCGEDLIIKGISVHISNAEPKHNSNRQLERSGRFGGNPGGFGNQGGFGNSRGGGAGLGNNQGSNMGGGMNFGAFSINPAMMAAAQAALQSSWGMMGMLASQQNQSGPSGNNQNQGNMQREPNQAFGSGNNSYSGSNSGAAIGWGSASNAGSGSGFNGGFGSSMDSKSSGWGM
Description: Mice were euthanized and fusion with myeloma cells was performed using splenocytes from four individual mice. Screening for antibodies from the successfully fused hybridoma cell lines were performed as follows. Diluted (1:32) cell culture supernatants were analyzed using Luminex bead-based multiplex assay (Luminex, The Netherlands). Luminex beads were conjugated to FL TDP-43 and with capturing IgGs with anti-mouse IgG-Fc antibodies specific for the IgG1, IgG2a, IgG2b, IgG2c, and IgG3 subclasses (Jackson Immunoresearch, USA). Binding to beads conjugated to FL TDP-43 identified 386 hits derived from mice immunized with the FL TDP-43 liposomal vaccine.
Luminex assays with serial dilution of antibodies were performed as described before to determine half maximal effective concentration (EC50) of binding of antibodies to FL TDP-43. In summary, all tested antibodies bind to full length TDP-43 with high affinity.

[3] = target: T3, TP-40 (human); experiment: indirect ELISA on TDP-43 peptides, antibody at 1 µg/ml
T3 peptide: Biotin-NNQNQGNMQREPNQA

[4] = target: T4, TDP-6 (human); experiment: as above
T4 construct: One of the 40-66 aa linear peptides; also called TDP-43 peptide 140-200
T4 peptide: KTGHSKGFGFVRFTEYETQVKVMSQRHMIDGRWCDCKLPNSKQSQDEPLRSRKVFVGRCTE

[5] = target: T5, TP-21 (human); experiment: as above
T5 peptide: Biotin-KQSQDEPLRSRKVFV

[6] = target: T6, TP-23 (human); experiment: as above
T6 peptide: Biotin-TEDMTEDELREFFSQ

Row | Binder | EC50 [2] | binding result [6] | further results
1 | B1 | – | – | binding result [1]: binds
2 | B2 | < 10 µM | – | binding result [3]: binds
3 | B3 | < 10 µM | – | binding result [4]: binds
4 | B4 | < 10 µM | – | binding result [5]: binds
5 | B5 | 180 µM | – | –
6 | B6 | < 10 µM | binds | –
7 | B7 | < 10 µM | binds | –
8 | B8 | < 10 µM | binds | –
9 | B9 | < 10 µM | – | –
10 | B10 | < 10 µM | – | –
11 | B11 | < 10 µM | binds | –
